Target: Bacillus cereus MazF (mRNA interferase BC0266) (Bacillus cereus)
Assay: SEC; Superdex 75 10/300 GL column, with reference proteins of the Gel Filtration Calibration Kits (GE Healthcare); His-tagged MazF eluted at almost the same time as carbonic anhydrase (29 kDa)

Bacillus cereus MazF (mRNA interferase BC0266) (natural protein)
stoichiometry N: 2

— publication PMC7354611
